Measurements: the RNAGym collection of RNA variant scans (doi:10.1073/pnas.2313332121)
Fewer inactive variants are shown than the library holds.

B1: TPR 5TU (parent)
chain: GGAUCUUCUCGAUCUAACAAAAAAGACAAAUCUGCCACAAAGCUUGAGAGCAUCUUCGGAUGCAGAGGCGGCAGCCUUCGGUGGCGCGAUAGCGCCAACGUUCUCAACUAUGACACGCAAAACGCGUGCUCCGUUGAAUGGAGUUUAUCAUG

Variants of: B1
Assay: polymerase ribozyme fitness, log enrichment relative to wild type (log ratio); higher = more active; in vitro selection for triplet polymerase activity
Outline: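 Mutant libraries were PCR-built and transcribed for each subunit of a heterodimeric triplet polymerase ribozyme and selected for one round in triplicate at −7 °C, frozen, before gel excision of extended constructs and streptavidin-bead capture. Input and output libraries were Illumina-sequenced, keeping genotypes with ≥10 input reads and ≥1 read per output. Fitness is a logarithmic ratio of genotype to wild-type enrichment, in base 2, using inverse-variance-weighted replicate averages.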

Variant	polymerase ribozyme fitness (log ratio)
GGAUCUUCUCGAUCUAACAAAAAAGACAAAUCUGCCACAAAGCUUGAGAGCAUCUUCGGAUGCAGAGGCGGCAGCCUUCGGUGGCGCGAUAGUGUCAACGUACUCGACUAUGACACGCAAAACGCGUGCUCCGUUGAAUGGAGUUUAUCAUG [C93U C95U U102A A106G]	-2.87
GGAUCUUCUCGAUCUAACAAAAAAGACAAAUCUGCCACAAAGCUUGAGAGCAUCUUCGGAUGCAGAGGCGGCAGCCUUCGGUUGCGCGAUAGCGCCAACGUUCUCAACUAUGACACGCAAAACGCGUGCUCCGUUGAAUGGAGUUUAUCGUG [G83U A150G]	-3.14
GGAUCUUCUCGAUCUAACAAAAAAGACAAAUCUGCCACAAAGCUUGAGAGCAUCUUCGGUUGCAGAGGCGGCAGCCUUCGGUGUCGCGAUAGCGGCAACGUUCUCAACUAUGACACGCAAAACGCGUGCUCCGUUGAAUGGAGUUUAUCAUG [A60U G84U C95G]	0.318
GGAUCUUCUCGAUCUAACAAACAAGACUAAUCUGCCACAAAGCUUGAGAGCAUCUUCGGAUGCAGAGGCGGCAGCCUUCGGUGGCGCGAUAGCGCCAACGUUCUUAACUAUGACACGCAAAAUGCGUGCUCCGUUGAAUGGAGUUUAUCAUG [A22C A28U C105U C123U]	≤ -4.2
GGAUCUUGUCGAUCUAACAAAAAAGACAAAUCUGCCACAAAGCUUGAGAGCAUCUUCGGAUGCAGAGGCGGCAGCCUUCGGUGUCGCGAUAGCGCCAACUUUCUCAACUAUGACACGCAAAACGCGUGCUCUGUUGAAUGGAGAUUAUCAUG [C8G G84U G100U C132U U144A]	≤ -4.2
GGAUCUUCUCGAUCUAACAAAAAAGACAAAUCUGCCACAAAGCUUGAGAGCAUCUUUGGAUGCAGAGGCGGCAGCCUUCGGUGGCGCGAUAGCGCCAACGUAUUCAACUAUGACACGCAAAACGCGUGCUCCGUUGAAUGGAGUUUAUCAUG [C57U U102A C103U]	-1.15
GGAUCUUCUCGAUCUAACAAAAAAGACAAAUCUGCCACAAAGCUUGAGAACAUCUUCGGAUGCAGAGGCGGCAGCCUUCGGUAGCGCGAUAGCGCCGACGUUCUCAACUAUGACACGCAAAACGCGUGCUCCGUUGAAUGGAGUUUAUCAUG [G50A G83A A97G]	-0.838
GGAUCUUCUCGAUCUAACAAAUAAGACAAAUCUGCCACAAAGCUUGAGAGCAUCUUCGGAUGCAGAGGCGGCAGCCUUCGGUGGAGCGAUAGCGCCAACGUUCUCAACUAUGACACGCAAAACGCGUGCUCCGUUGAAUGGAGUUUAUCAUG [A22U C85A]	-0.394
GGAUCUUCUCGAUCUAACAAAAAAGACAAAUCUGCCACAAAGCUUGAGAGCAACUUCGGAUGCAGAGGCGGCAGCCUUCGGUGGCGCGAUAGCACCAACGUUCUCAACUAUGACACGCAAAACGCGUGCUCCGUUGAAUGGAGUUUAUCAUG [U53A G94A]	-1.61
GGCUCAUCUCGAUCUAACAAAAAAGACAAAUCUGCCACAAAGCUUGAGAGCAUCUUCGGAUGCAGAGGCGGCAGCCUUCGGUGGCGCGAUAGCGCCAACGUUCUCAACUAUGACACGCAAAACGCGUGCUCCGUUGAAUGGAGUUUAUCAUG [A3C U6A]	-0.461
GGAUCUUCUCGAUCUAACAAAAAAGACAAAUCUGCCAAAAAGCUUGAGAGCAUAUUCGGAUGUAGAGGCUGCAGUCUUCGGUGGCGAGAUAGCGCCAACGUUCUCAACUAUGACACGCAAAACGCGUGCUCCGUUGAAUGGAGUUUAUCAUG [C38A C54A C63U G70U C75U C87A]	≤ -4.2
GGAUCUUCUCGAUCUAACCAAAAAGACAAAUCUGCCACAAAGCUUGAGAGCAUCUUCGGAUGCAGAGGCGGCAGCCUUCGGUGGCGCGAUAGCGCCAACGUUCUCAACUAUGACACGCAAAAGGCGUGCUCCGUUGAAUGGAGUUUAUCAUG [A19C C123G]	0.921
GGAUCUUCUCGAUCUAACAAAAAAGACAAAUCUGCCACAGAGCUUGAGAGCAUUUUCGGAUGCAGAGGCGGCAGCUUUCGGUGGCGCGAUCGCGGCAACGUUCUCAACUAUGACACGCAAAACGCGUGCUCCGUUGAAUGGAUUUUAUCAUG [A40G C54U C76U A91C C95G G143U]	≤ -4.2
GGAUCUUCUCGAUCUAACAAAAAAGACAAAUCUGCCACAAAGCUUGAGAGCAUCUUCGGAUGCAGAGGCGGCAGCCUUCGGUGGCGCGAUAGCGCCAACGGUCUCAACUAUGACACACAAAACGCGUGCUCCUUUGAAUGGAGUUUAUCAUG [U101G G117A G133U]	-4.1
GGAUCUUCUCGAUCUAACAAAAAAGACUAAUCUGCCACAAAGCUUGAGAGCAUCUUCGGAUGCAGAGGCGGCAACCUUCGGUGGUGCGAUUGCGCCAACGUUCUCAACUAUGACACGCAAAACGCGUGCUCCGUUGAAUGGAGUUUAUCAUG [A28U G74A C85U A91U]	≤ -4.2
GGAUCUUCUCGAUCUAGCAAAAUAGUCAAAUCUGCCACAAAGCUUGAGAGCAUCUUCGGAUGCAGAGGCGGCAGCCUUCGGUGGCGCGAUAGCGCCAACGUUCUCAACUAUGACAGGCAAAACGCGUGCUCCGUUGACUGGCGUUUAUCAUG [A17G A23U A26U C116G A138C A142C]	≤ -4.2
GGAUCUCCUCGAUCUAACAAAAAAGAUAAAUCUGCCACAAAGCUUGAGCGCGUCUUCGGAUGCAGAGGCGGCAGCCUUAGGUGGCGGGAUAGGGCAUAUGUUCUCAAUUAUGACACGCAUAACGCGUGCUCCGUUGAAUGGAGUUUAUCAUG [U7C C27U A49C A52G C79A C87G C93G C96A A97U C99U C108U A120U]	-4.18
GGAUCUUCUCGAUCUAACAACAAAGACAAAUGUGCCACAAAGCUUGAAAGCAUCUUCGGAUGCAGAGGCGGCAGCCUUCGGUGGCGCGAUAGCGCCAACGUUCUCAACUAUGACACGCAAAGCGCUUGCUCCGUUGAAUGGAGUUUAUCAUG [A21C C32G G48A A122G G126U]	≤ -4.2
GGAUCUUCUCGAUCUAACAAAAAAGACAAAUCUGCCACAAAGCUUGAGAGCCUCUUCUGAUGCAUAGGAGGCAGCCUUCCGUGGCGCGAUAGCGCCAACGUUAUCAAGUAUGACACGCAAAACGCGUGCUCCGUUGAAUGGAGUUUAUCAUG [A52C G58U G65U C69A G80C C103A C108G]	≤ -4.2
